Patent US20190134143A1

Molecular target: PDZ1/2 domain
Assay: SPR, Biacore 3000; PDZ1/2 amine-coupled to the chip, peptide as analyte, 1:1 binding model

PDZ1/2 domain, sequence (P78352 65-246): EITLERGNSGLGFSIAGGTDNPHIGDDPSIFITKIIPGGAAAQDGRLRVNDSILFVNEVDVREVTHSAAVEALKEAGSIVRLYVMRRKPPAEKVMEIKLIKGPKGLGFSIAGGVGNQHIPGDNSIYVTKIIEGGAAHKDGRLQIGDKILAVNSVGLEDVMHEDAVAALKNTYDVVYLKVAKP

Question: With YGRKKRRQRRRKLSSIESDV (modifications not checked) [control chimeric peptide NA-1] as the binder, how does the Kd read?
Answer: The Kd was 0.0753 µM.
